From the Human Domainome abundance scans (Beltran et al. 2025)
± gives the uncertainty stated by the source.

B1: Tudor domain-containing protein 3, residues 554 to 611; numbered along this chain, Q9H7E2 (parent)
chain: KMWKPGDECFALYWEDNKFYRAEVEALHSSGMTAVVKFIDYGNYEEVLLSNIKPIQTE

Variants of: B1
Assay: abundance fitness (aPCA) (normalised: wild type 0, dead -1); higher = more abundant; growth selection in yeast, the domain comes from the species named
Conditions: Homo sapiens

Variant	abundance fitness
P5C	-0.201 ± 0.073
P5Q	-0.061 ± 0.09
P5W	-0.926 ± 0.1
P5I	-0.141 ± 0.16
K4P	-0.912 ± 0.16
K4G	-0.486 ± 0.064
K4M	-0.169 ± 0.095
K4E	-0.2 ± 0.093
K4R	-0.232 ± 0.061
K18W	-0.736 ± 0.11
K18F	-0.917 ± 0.26
K18V	-0.255 ± 0.069
E25H	-0.039 ± 0.1
E25N	-0.111 ± 0.13
E25R	-0.019 ± 0.054
E25S	0.022 ± 0.06
L12V	-0.368 ± 0.071
L12I	-0.272 ± 0.14
L12R	-0.124 ± 0.059
L12C	-0.236 ± 0.13
L12N	-0.486 ± 0.17
L12P	-0.394 ± 0.075
L12Q	-0.252 ± 0.09
N43V	0.035 ± 0.057

Variant	abundance fitness
N43H	-0.073 ± 0.17
N43R	0.091 ± 0.048
N43K	0.093 ± 0.094
N43S	-0.045 ± 0.069
A22N	-0.986 ± 0.3
A22I	-0.923 ± 0.36
A22L	-0.857 ± 0.093
A22P	-0.976 ± 0.14
V35Y	-0.092 ± 0.1
V35F	-0.186 ± 0.1
V35G	-0.384 ± 0.057
V35N	-0.211 ± 0.12
V35C	-0.162 ± 0.088
T33R	-0.088 ± 0.052
T33S	0.012 ± 0.059
H28C	-0.098 ± 0.077
H28Q	-0.088 ± 0.13
H28S	-0.042 ± 0.066
H28Y	-0.401 ± 0.11
H28T	-0.065 ± 0.075
L27W	-0.76 ± 0.1
L27V	-0.064 ± 0.067
L27I	-0.072 ± 0.11
M32C	-0.098 ± 0.082

Variant	abundance fitness
M32A	-0.036 ± 0.068
M32G	-0.031 ± 0.055
M32R	-0.009 ± 0.055
M32F	-0.005 ± 0.081
F19W	-0.008 ± 0.081
F19Y	-0.123 ± 0.14
F19M	-0.386 ± 0.13
F19Q	-0.599 ± 0.12
L49G	-0.954 ± 0.079
L49Q	-0.583 ± 0.11
L49I	-0.026 ± 0.085
L49R	-0.708 ± 0.069
P54F	-0.701 ± 0.15
P54T	-0.125 ± 0.093
P54N	-0.41 ± 0.13
P54S	-0.158 ± 0.063
I52Y	-0.923 ± 0.16
I52V	-0.184 ± 0.063
E15N	-0.105 ± 0.1
E15L	-0.064 ± 0.06
E15W	-0.27 ± 0.074
E15I	-0.156 ± 0.11
E15F	-0.149 ± 0.1
R21H	-0.143 ± 0.089

Variant	abundance fitness
R21C	-0.826 ± 0.11
Y20F	-0.807 ± 0.17
Y20A	-0.228 ± 0.068
Y20W	-0.305 ± 0.073
Y20L	-0.171 ± 0.059
W3G	-0.856 ± 0.081
W3C	-0.509 ± 0.12
W3I	-0.059 ± 0.13
W3Q	-0.721 ± 0.4
A34Q	-0.575 ± 0.27
A34M	-0.358 ± 0.11
A34N	-0.781 ± 0.16
D16I	-1.04 ± 0.26
D16Q	-0.498 ± 0.12
D16V	-0.722 ± 0.099
E8H	0.007 ± 0.089
E8W	-0.178 ± 0.077
S50N	-0.217 ± 0.086
S50D	0.026 ± 0.084
S50W	-0.585 ± 0.08
S50H	0.048 ± 0.11
S50Q	-0.115 ± 0.11
S50L	-0.523 ± 0.074
S50P	-0.548 ± 0.082

Variant	abundance fitness
E23P	-0.838 ± 0.11
E23I	0.143 ± 0.1
N17V	-0.55 ± 0.074
N17T	-0.366 ± 0.084
N17G	-0.105 ± 0.059
N17W	-0.716 ± 0.13
T57A	0.041 ± 0.065
T57F	-0.123 ± 0.1
T57K	-0.047 ± 0.16
T57H	0.06 ± 0.12
G42K	-0.407 ± 0.14
G42A	-0.305 ± 0.077
K37R	-0.064 ± 0.058
K37I	-0.968 ± 0.25
K37C	-0.612 ± 0.15
K37G	-0.833 ± 0.065
Y44S	0.135 ± 0.062
Y44R	0.171 ± 0.056
Y44M	0.09 ± 0.12
Y44K	0.157 ± 0.088
M2L	-0.098 ± 0.075
M2T	-0.23 ± 0.091
M2W	-0.657 ± 0.13
M2S	-0.009 ± 0.077

Variant	abundance fitness
M2Q	-0.134 ± 0.14
M2H	-0.13 ± 0.17
I55K	-0.139 ± 0.089
I55T	-0.18 ± 0.097
I55R	-0.068 ± 0.055
I55Y	-0.132 ± 0.11
I55N	-0.265 ± 0.12
I55C	-0.041 ± 0.074
G31S	-0.082 ± 0.062
G31D	-0.198 ± 0.083
G31E	-0.092 ± 0.093
G31V	-0.45 ± 0.067
Y41A	0.134 ± 0.062
Y41V	-0.025 ± 0.062
Y41W	-0.029 ± 0.08
E46P	-0.465 ± 0.11
E46R	-0.138 ± 0.075
E46L	-0.327 ± 0.076
E46I	-0.488 ± 0.12
S30D	-0.179 ± 0.074
S30G	-0.132 ± 0.052
S30M	-0.282 ± 0.098
N51C	-0.205 ± 0.11
N51Q	-0.036 ± 0.09

Variant	abundance fitness
N51R	-0.485 ± 0.06
N51G	-0.462 ± 0.055
N51W	-0.271 ± 0.077
V36L	-0.571 ± 0.067
V36A	-0.92 ± 0.097
W14D	0.129 ± 0.1
W14L	-0.034 ± 0.062
W14Q	0.169 ± 0.099
W14N	0.139 ± 0.1
K1S	-0.283 ± 0.14
K1Y	-0.158 ± 0.27
K1T	-0.278 ± 0.17
K1Q	-0.657 ± 0.25
C9N	-0.82 ± 0.27
C9Q	-0.93 ± 0.12
G6V	-0.928 ± 0.094
G6H	-0.502 ± 0.12
G6A	-0.785 ± 0.086
G6E	-0.845 ± 0.12
G6Y	-0.971 ± 0.25
L48K	-0.1 ± 0.081
L48Y	-0.247 ± 0.12
L48I	-0.408 ± 0.13
